Test results from PMC2710984 (International Journal of Peptide Research and Therapeutics, 2006).
Square brackets hold non-standard residues; d marks the D form. Ends that are not written are not given here. Gly(cPr) = N[C@H](C(=O)O)C1CC1; Chg = N[C@H](C(=O)O)C1CCCCC1; Pip = O=C(O)[C@@H]1CCCCN1; Abu = CC[C@H](N)C(=O)O; Aib = CC(C)(N)C(=O)O

molecular target: GST–BIR3 fusion protein (XIAP BIR3 domain); test: FMAT bead-based fluorescence competition assay

Question: [Gly(cPr)]VPF-NH2 [Cpg–VPF (compound 12)] was tested. Which IC50 did it give?
Answer: The IC50 was over 1600 nM.

Question: [Abu]VPF-NH2 [Abu–VPF (compound 9)] was tested. Which IC50 did it give?
Answer: The IC50 was 120 nM.

Question: How did the IC50 turn out when [Aib]VPF-NH2 [Dmg–VPF (compound 11)] was run?
Answer: Its IC50 is over 1600 nM.

Question: How did the IC50 turn out when A[Gly(cPr)]PF-NH2 [A–Cpg–PF (compound 18)] was run?
Answer: The IC50 was over 1600 nM.

Question: [Chg]VPF-NH2 [Chx–VPF (compound 13)] was tested. Which IC50 did it give?
Answer: The IC50 was over 1600 nM.

Question: Which IC50 does the source give for AV[Pip]F-NH2 [AV–Pip–F (compound 21)] here?
Answer: The IC50 was 710 nM.
